Source: patent publication US20240092898A1 (BIVICTRIX, published 2024)

Columns and labels:
CD7 [1] = biological target: T1, CD7 (human, UniProt P09564 26-180, limits assumed); test: SPR
T1 construct: also called human CD7
T1 sequence (looked up): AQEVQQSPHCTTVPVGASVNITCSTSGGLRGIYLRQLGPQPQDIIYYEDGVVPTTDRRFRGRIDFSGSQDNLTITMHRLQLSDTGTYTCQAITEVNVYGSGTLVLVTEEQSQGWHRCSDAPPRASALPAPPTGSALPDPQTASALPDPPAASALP

CD7 [2] = biological target: T1, CD7; test: SPR; ratio of KD to WT

Kd (CD7 [1]): 44.5 nM
Fold reduction in binding affinity compared to WT (Kd) (CD7 [2]): 17 fold
B1: 7-AA-1 (antibody, V domains shown)
VH: QVQLQESGAELVKPGASVKLSCKASGYTFTSYWMHWVKQRPGQGLEWIGKINPSNGRTNYNEKFKSKATLTVDKSSSTAYMQLSSLTSEDSAVYYCARGGVYYDLYYAALDYWGQGTTVTVSS
VL: DIELTQSPATLSVTPGDSVSLSCRASQSISNNLHWYQQKSHESPRLLIKSASQSISGIPSRFSGSGSGTDFTLSINSVETEDFGMYFCQQSNSWPYTFGGGTKLEIKR
